From publication PMC9338999

Columns and labels:
[1] = target: S492R-EGFR-ECD-Fc (human) (UniProt P00533); assay: ELISA
WT-EGFR-ECD-Fc (human) = WT-EGFR-ECD-Fc (human) (UniProt P00533); assay: ELISA
[2] = target: full-length human wild-type EGFR on NIH3T3 cells (human) (UniProt P00533); assay: FACS
[3] = target: full-length human EGFR S492R on NIH3T3 cells (human) (UniProt P00533); assay: FACS

Kd [1]: 0.0272 nM | Kd (WT-EGFR-ECD-Fc (human)): 0.0211 nM | Kd [2]: 2.36 nM | Kd [3]: 2.33 nM
Substance: Panitumumab
